These results are taken from paper PMC5065529, “Wnt Signalosome Assembly by DEP Domain Swapping of Dishevelled” (Molecular Cell, 2016).

B1: SNAP-FZD5 (Frizzled 5), wild type [human] / DEP_(414–507)-GFP, minimal DEP domain of DVL2 [human] (parent)
chain 1: GRGLSVHTDMASVTKAMAAPESGLEVRDRMWLKITIPNAFLGSDVVDWLYHHVEGFPERREARKYASGLLKAGLIRHTVNKITFSEQCYYVFGD
chain 2: ASKAPVCQEITVPMCRGIGYNLTHMPNQFNHDTQDEAGLEVHQFWPLVEIQCSPDLRFFLCSMYTPICLPDYHKPLPPCRSVCERAKAGCSPLMRQYGFAWPERMSCDRLPVLGRDAEVLCMDYNRSEATTAPPRPFPAKPTLPGPPGAPASGGECPAGGPFVCKCREPFVPILKESHPLYNKVRTGQVPNCAVPCYQPSFSADERTFATFWIGLWSVLCFISTSTTVATFLIDMERFRYPERPIIFLSACYLCVSLGFLVRLVVGHASVACSREHNHIHYETTGPALCTIVFLLVYFFGMASSIWWVILSLTWFLAAGMKWGNEAIAGYAQYFHLAAWLIPSVKSITALALSSVDGDPVAGICYVGNQNLNSLRGFVLGPLVLYLLVGTLFLLAGFVSLFRIRSVIKQGGTKTDKLEKLMIRIGIFTLLYTVPASIVVACYLYEQHYRESWEAALTCACPGHDTGQPRAKPEYWVLMLKYFMCLVVGITSGVWIWSGKTVESWRRFTSRCCCRPRRGHKSGGAMAAGDYPEASAALTGRTGPPGPAATYHKQVSLSHV

In the assay the parent is B1. The assay can be described thus: FZD5-dependent PM recruitment of DEP-GFP (cell scoring). The settings on record: with DEP_(414–507)-GFP, 100 cells scored in each case.

For the variant chain 2 ASKAPVCQEITVPMCRGIGYNLTHMPNQFNHDTQDEAGLEVHQFWPLVEIQCSPDLRFFLCSMYTPICLPDYHKPLPPCRSVCERAKAGCSPLMRQYGFAWPERMSCDRLPVLGRDAEVLCMDYNRSEATTAPPRPFPAKPTLPGPPGAPASGGECPAGGPFVCKCREPFVPILKESHPLYNKVRTGQVPNCAVPCYQPSFSADERTFATFWIGLWSVLCFISTSTTVAAFLIDMERFRYPERPIIFLSACYLCVSLGFLVRLVVGHASVACSREHNHIHYETTGPALCTIVFLLVYFFGMASSIWWVILSLTWFLAAGMKWGNEAIAGYAQYFHLAAWLIPSVKSITALALSSVDGDPVAGICYVGNQNLNSLRGFVLGPLVLYLLVGTLFLLAGFVSLFRIRSVIKQGGTKTDKLEKLMIRIGIFTLLYTVPASIVVACYLYEQHYRESWEAALTCACPGHDTGQPRAKPEYWVLMLKYFMCLVVGITSGVWIWSGKTVESWRRFTSRCCCRPRRGHKSGGAMAAGDYPEASAALTGRTGPPGPAATYHKQVSLSHV [chain 2 T230A], the screen value is 1 % of cells (parent: 52, read off a plot) and 12 % of cells (parent: 88, read off a plot).
As to chain 2 ASKAPVCQEITVPMCRGIGYNLTHMPNQFNHDTQDEAGLEVHQFWPLVEIQCSPDLRFFLCSMYTPICLPDYHKPLPPCRSVCERAKAGCSPLMRQYGFAWPERMSCDRLPVLGRDAEVLCMDYNRSEATTAPPRPFPAKPTLPGPPGAPASGGECPAGGPFVCKCREPFVPILKESHPLYNKVRTGQVPNCAVPCYQPSFSADERTFATFWIGLWSVLCFISTSTTVATFLIDMERFRYPERPIIFLSACYLCVSLGFLVRLVVGHASVACSREHNHIHYETTGPALCTIVFLLVYFFGMASSIWWVILSLTWFLAAGMKWGNEAIAGYAQYFHLAAWLIPSVKSITALALSSVDGDPVAGICYVGNQNLNSLRGFVLGPLVLYLLVGTLFLLAGFVSLFRIRSVIKQGGTKTDKLEKLMIRIGIFTLLYTVPASIVVACYLYEQHYRESWEAALTCACPGHDTGQPRAKPEYWVLMLKYFMCLVVGITSGVWIWSGKAVESWRRFTSRCCCRPRRGHKSGGAMAAGDYPEASAALTGRTGPPGPAATYHKQVSLSHV [chain 2 T500A], the screen value is 6 % of cells (parent: 52, read off a plot) and 36 % of cells (parent: 88, read off a plot).
In the case of chain 2 ASKAPVCQEITVPMCRGIGYNLTHMPNQFNHDTQDEAGLEVHQFWPLVEIQCSPDLRFFLCSMYTPICLPDYHKPLPPCRSVCERAKAGCSPLMRQYGFAWPERMSCDRLPVLGRDAEVLCMDYNRSEATTAPPRPFPAKPTLPGPPGAPASGGECPAGGPFVCKCREPFVPILKESHPLYNKVRTGQVPNCAVPCYQPSFSADERTFATFWIGLWSVLCFISTSTTVATFLIDMERFRYPERPIIFLSACYLCVSLGFLVRLVVGHASVACSREHNHIHYETTGPALCTIVFLLVYFFGMASSIWWVILSLTWFLAAGMKWGNEAIAGYAQYFHLAAWLIPSVKSITALALSSVDGDPVAGICYVGNQNLNSLRGFVLGPLVLYLLVGTLFLLAGFVSLFRIRSVIKQGGTKTDKLEKLMIRIGIFTLLYTVPASIVVACYLYEQHYRESWEAALTCACPGHDTGQPRAKPEYWVLMLKYFMCLVVGITSGVWIWSGKTVESWRRFTARCCCRPRRGHKSGGAMAAGDYPEASAALTGRTGPPGPAATYHKQVSLSHV [chain 2 S509A], the screen value by setting is: (parent: 52, read off a plot) 52 % of cells; (parent: 88, read off a plot) 88 % of cells.
